Like-named read-outs stand apart in the source and are kept apart here. Square brackets hold non-standard residues; d marks the D form. Peptide text beside a SMILES is read from it. * marks the point of attachment. HYNIC = NNc1ccc(C(=O)*)cn1; AEEA = NCCOCCOCC(=O)O
Experiment: In vivo biodistribution study (ex vivo organ counting)
Set-up: species or system mice
Details: female, mouse, iv, total radioactivity, mean ± SD, n = 3; for tissue uptake at 2 h: 2h after i.v.; for tissue uptake at 4 h: 4h after i.v.
Protocol: All animal experiments were approved by Jilin University Health Science Center Animal Care and Use Committee. Human breast carcinoma cell line MDA-MB-231 with high MT1-MMP expression and human lung adenocarcinomaepithelial cell line A549 with low MT1-MMP expression were cultured in DMEM medium containing 10% (v/v) fetal bovine serum (Invitrogen) supplemented with penicillin (100 μg/mL) and streptomycin (100 μg/mL) at 37°C with 5% CO2. MDA-MB-231 and A549 tumor models were established by subcutaneous injection of 5×10^6 cells into the upper right front flank of female athymic nude mice (Department of Experimental Animal, Peking University Health Science Center). Tumor growth was monitored by caliper measurements three times a week after the tumors are palpable. The mice were used for SPET/CT imaging when the tumor volume reached about 200 mm3 (about 14 days after tumor inoculations). The tumor volume was determined as the formula: V = a × (b^2)/2, where a and b are the length and width of each tumor in mm respectively. During the injection and image acquisition process, the mice were anesthetized with 2.5% isoflurane in oxygen delivered at a flow rate of 1.5 L/min.
Animals were divided into 4 groups (n = 3) for 4 time points with approximately equal distribution of tumor sizes on the day before the study. At 0.5, 1, 2, and 4 h after intravenous administration of [^99mTc]-(HYNIC-AF7P)(tricine)(TPPTS), MDA-MB-231 tumor bearing mice were euthanized. […] The organ uptake was calculated as a percentage of the injected dose per gram of wet tissue (%ID/g).

[1] = BALB/c nude, blood, read-out: Blood uptake
[2] = BALB/c nude, bone, read-out: Bone uptake
[3] = BALB/c nude, heart, read-out: Heart uptake
[4] = BALB/c nude, kidney, read-out: Kidney uptake
[5] = BALB/c nude, lung, read-out: Lung uptake
[6] = BALB/c nude, muscle, read-out: Muscle uptake
[7] = BALB/c nude, spleen, read-out: Spleen uptake
[8] = athymic nude, intestine, read-out: Intestine uptake
[9] = athymic nude, pancreas, read-out: Pancreas uptake

SMILES: CC(C)C[C@H](NC(=O)[C@H](Cc1ccccc1)NC(=O)[C@@H](NC(=O)[C@H](CCCCN)NC(=O)[C@@H](NC(=O)[C@H](CC(N)=O)NC(=O)[C@H](Cc1c[nH]cn1)NC(=O)[C@H](CC(C)C)NC(=O)[C@H](Cc1c[nH]cn1)NC(=O)[C@H](CCCCN)NC(=O)[C@H](Cc1c[nH]c2ccccc12)NC(=O)[C@H](Cc1c[nH]cn1)NC(=O)c1ccc(NN)nc1)[C@@H](C)O)[C@@H](C)O)C(=O)NCCOCCOCC(=O)O [[^99mTc]-(HYNIC-AF7P)(tricine)(TPPTS), metal not drawn] ({HYNIC}-HWKHLHNTKTFL[AEEA]-OH)
- tissue uptake at 0.5 h (BALB/c nude, blood, 0.5h after i.v., read-out: Blood uptake): 0.36 ± 0.02 %ID/g
- tissue uptake at 1 h (BALB/c nude, blood, 1h after i.v., read-out: Blood uptake): 0.28 ± 0.01 %ID/g
- tissue uptake at 2 h [1]: 0.2 ± 0.01 %ID/g
- tissue uptake at 4 h [1]: 0.19 ± 0.01 %ID/g
- tissue uptake at 0.5 h (BALB/c nude, bone, 0.5h after i.v., read-out: Bone uptake): 0.8 ± 0.04 %ID/g
- tissue uptake at 1 h (BALB/c nude, bone, 1h after i.v., read-out: Bone uptake): 0.58 ± 0.03 %ID/g
- tissue uptake at 2 h [2]: 0.44 ± 0.02 %ID/g
- tissue uptake at 4 h [2]: 0.4 ± 0.02 %ID/g
- tissue uptake at 0.5 h (BALB/c nude, heart, 0.5h after i.v., read-out: Heart uptake): 2.28 ± 0.16 %ID/g
- tissue uptake at 1 h (BALB/c nude, heart, 1h after i.v., read-out: Heart uptake): 1.67 ± 0.2 %ID/g
- tissue uptake at 2 h [3]: 0.98 ± 0.07 %ID/g
- tissue uptake at 4 h [3]: 0.64 ± 0.04 %ID/g
- tissue uptake at 0.5 h (BALB/c nude, kidney, 0.5h after i.v., read-out: Kidney uptake): 8.86 ± 0.48 %ID/g
- tissue uptake at 1 h (BALB/c nude, kidney, 1h after i.v., read-out: Kidney uptake): 7.42 ± 0.43 %ID/g
- tissue uptake at 2 h [4]: 4.84 ± 0.19 %ID/g
- tissue uptake at 4 h [4]: 4.33 ± 0.2 %ID/g
- tissue uptake at 0.5 h (BALB/c nude, liver, 0.5h after i.v., read-out: Liver uptake): 5.22 ± 0.17 %ID/g
- tissue uptake at 1 h (BALB/c nude, liver, 1h after i.v., read-out: Liver uptake): 3.9 ± 0.32 %ID/g
- tissue uptake at 2 h (BALB/c nude, liver, read-out: Liver uptake): 2.89 ± 0.11 %ID/g
- tissue uptake at 0.5 h (BALB/c nude, lung, 0.5h after i.v., read-out: Lung uptake): 2.11 ± 0.06 %ID/g
- tissue uptake at 1 h (BALB/c nude, lung, 1h after i.v., read-out: Lung uptake): 1.45 ± 0.18 %ID/g
- tissue uptake at 2 h [5]: 1.01 ± 0.03 %ID/g
- tissue uptake at 4 h [5]: 0.7 ± 0.09 %ID/g
- tissue uptake at 0.5 h (BALB/c nude, muscle, 0.5h after i.v., read-out: Muscle uptake): 0.9 ± 0.06 %ID/g
- tissue uptake at 1 h (BALB/c nude, muscle, 1h after i.v., read-out: Muscle uptake): 0.68 ± 0.09 %ID/g
- tissue uptake at 2 h [6]: 0.53 ± 0.04 %ID/g
- tissue uptake at 4 h [6]: 0.52 ± 0.04 %ID/g
- tissue uptake at 0.5 h (BALB/c nude, spleen, 0.5h after i.v., read-out: Spleen uptake): 0.9 ± 0.07 %ID/g
- tissue uptake at 1 h (BALB/c nude, spleen, 1h after i.v., read-out: Spleen uptake): 0.71 ± 0.06 %ID/g
- tissue uptake at 2 h [7]: 0.56 ± 0.06 %ID/g
- tissue uptake at 4 h [7]: 0.41 ± 0.02 %ID/g
- tissue uptake at 0.5 h (athymic nude, intestine, 0.5h after i.v., read-out: Intestine uptake): 1.91 ± 0.05 %ID/g
- tissue uptake at 1 h (athymic nude, intestine, 1h after i.v., read-out: Intestine uptake): 1.61 ± 0.07 %ID/g
- tissue uptake at 2 h [8]: 1.52 ± 0.12 %ID/g
- tissue uptake at 4 h [8]: 1.14 ± 0.08 %ID/g
- tissue uptake at 4 h (athymic nude, liver, read-out: Liver uptake): 2.55 ± 0.1 %ID/g
- tissue uptake at 0.5 h (athymic nude, pancreas, 0.5h after i.v., read-out: Pancreas uptake): 0.77 ± 0.02 %ID/g
- tissue uptake at 1 h (athymic nude, pancreas, 1h after i.v., read-out: Pancreas uptake): 0.52 ± 0.03 %ID/g
- tissue uptake at 2 h [9]: 0.35 ± 0.04 %ID/g
- tissue uptake at 4 h [9]: 0.19 ± 0.02 %ID/g
- tissue to tissue ratio at 0.5 h (athymic nude, tumor and intestine, 0.5h after i.v., read-out: Tumor/Intestine ratio): 1.76 ± 0.1
- tissue to tissue ratio at 1 h (athymic nude, tumor and intestine, 1h after i.v., read-out: Tumor/Intestine ratio): 1.61 ± 0.17
